Bridge positions count the residues as written; N and C are the ends. Square brackets hold non-standard residues; d marks the D form. Ends that are not written are not given here. * marks the point of attachment. X8 = 4‑(carboxymethyl)piperazine‑1‑carbonyl, O=C(O)CN1CCN(C(=O)*)CC1; Phe(4-COOH) = N[C@@H](Cc1ccc(C(=O)O)cc1)C(=O)O; Bip = N[C@@H](Cc1ccc(-c2ccccc2)cc1)C(=O)O; Phe(4-F) = N[C@@H](Cc1ccc(F)cc1)C(=O)O; 4Pal = N[C@@H](Cc1ccncc1)C(=O)O; Tic = O=C(O)[C@@H]1Cc2ccccc2CN1; Cit = NC(=O)NCCC[C@H](N)C(=O)O; βAla = NCCC(=O)O
Columns and labels:
BMP7 = molecular target: T1, BMP7 (Homo sapiens, UniProt P18075); test: BMP7 signal transduction inhibitory activity: SMAD1 phosphorylation by BMP7 stimulus, A549 cells; format: cell-based; settings: inhibition of SMAD1 phosphorylation by BMP7 stimulus, AlphaLISA, A549 cells; class by peptide concentration zone
T1 sequence (P18075 293-431): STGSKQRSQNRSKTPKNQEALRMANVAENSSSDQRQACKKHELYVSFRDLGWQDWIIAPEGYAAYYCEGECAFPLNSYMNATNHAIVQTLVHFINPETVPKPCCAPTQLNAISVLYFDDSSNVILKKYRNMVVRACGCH
Protocol: In the present Example, BMP7 signal transduction inhibitory activity of each peptide consisting of an amino acid sequence set forth in any of SEQ ID NOs: 5 to 240 and 243 to 421 synthesized in Example 10 was verified by phosphorylation of SMAD1 caused by BMP7 stimulus. The evaluation was performed using 10 nM of BMP7 instead of BMP 4. Regarding SEQ ID NOs: 5 to 240, the concentrations of the peptides synthesized in the same manner as in Example 2 (shown as 2 in the row of Synthesis) were 1 nM, 10 nM, and 100 nM, and the concentrations of the peptides synthesized in the same manner as in Example 1 (shown as 1 in the row of Synthesis) were 10 nM, 100 nM, and 1,000 nM, similarly with Example 11. […] Regarding SEQ ID NOs: 243 to 273 and SEQ ID NOs: 299 to 321, the test was performed at the concentrations (10, 100, 1,000 nM) described in Table 6. […] Regarding SEQ ID NOs: 274 to 298, the test was performed at the concentrations (100, 300, 1,000 nM) described in Table 6. […] Regarding SEQ ID NOs: 322 to 370 and SEQ ID NOs: 393 to 421, the test was performed at the concentrations (1, 10, 100 nM). […] Regarding SEQ ID NOs: 371 to 391, the test was performed at the concentrations (10, 30, 90 nM). […] The evaluation tests of the signal transduction inhibitory activities of SEQ ID NOs: 87, 177, and 181 are as follows. Specifically, the inhibitory activity of BMP4 was evaluated in the same manner as in Example 11 that used A549 cells. Eight concentrations of the peptides were used at a common ratio of 1/3 starting from 2 nM. The inhibitory activity of BMP7 was evaluated in the same manner as in Example 12. Eight concentrations of the peptides were used at a common ratio of 1/3 starting from 100 nM. Note that recombinant Human Noggin Protein (R&D) as a positive control was used at the same concentration as that of the peptide. […] The inhibitory activity of BMP7 was evaluated using eight concentrations of the peptides at a common ratio of 1/3 starting from 1,000 nM in the same manner as in Example 12.

BMP4 = molecular target: T2, BMP4 (Homo sapiens, UniProt P12644); test: BMP4 signal transduction inhibitory activity: SMAD1 phosphorylation by BMP4 stimulus, AlphaLISA SureFire, A549 cells; format: cell-based; settings: inhibition of SMAD1 phosphorylation by BMP4 stimulus, AlphaLISA, A549 cells; class by peptide concentration zone
T2 sequence (P12644 293-408): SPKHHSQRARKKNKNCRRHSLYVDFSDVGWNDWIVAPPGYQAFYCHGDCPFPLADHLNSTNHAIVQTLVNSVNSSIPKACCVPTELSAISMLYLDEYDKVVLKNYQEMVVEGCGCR
Protocol: In the present Example, a BMP4 signal transduction inhibitory activity of each peptide consisting of an amino acid sequence set forth in any of SEQ ID NOs: 5 to 240 and 243 to 421 synthesized in Example 10 was verified by phosphorylation of SMAD1 caused by BMP4 stimulus. A549 cells were cultured in MEM (Thermo Fisher Scientific) containing 10% FBS (Thermo Fisher Scientific), 1×Non-essential amino acids (Thermo Fisher Scientific), and 50 μg/mL Gentamicin. After TrypLE (Gibco) was used to peel the cells, seeding was performed in a 96-well plate for adhesion cells so that the number of cells would be 20,000 per well, followed by culturing for 48 hours. After the cells were cultured as described above, the culture medium was replaced with a peptide solution or recombinant Human Noggin Protein (R&D) solution as a positive control diluted to various concentrations in a nutrition-starved culture medium containing 0.1% BSA (Sigma) instead of FBS Thirty minutes after culturing, […], to stimulate it for 60 minutes. The culture medium was removed and the cells were lysed with Lysis Buffer provided with AlphaLISA (registered trademark) SureFire (registered trademark) Ultra SMAD1 (p-[…]/465) Assay kit (PerkinElmer). According to the protocol of the kit, a signal was detected using SpectraMax (registered trademark) Paradigm (registered trademark) multimode microplate reader (Molecular Devices). The obtained signal was analysed using GraphPad Prism (GraphPad Software). The % inhibition was calculated by considering non-stimulation as 100% inhibition and BMP stimulation only as 0% inhibition. Regarding SEQ ID NOs: 5 to 187, the concentrations of the peptides synthesized in the same manner as in Example 2 (shown as 2 in the row of Synthesis) were 0.02 nM, 0.2 nM, and 2 nM, and the concentrations of the peptides synthesized in the same manner as in Example 1 (shown as 1 in the row of Synthesis) were 0.2 nM, 2 nM, and 20 nM. The evaluation results were based on the results of evaluation using the peptides synthesized in the same manner as in Example 2. […] Regarding SEQ ID NOs: 243 to 321, the test was performed at the concentrations described in Table 6. […] Regarding SEQ ID NOs: 322 to 421, the test was performed at the concentrations described in Table 7. […] The evaluation tests of the signal transduction inhibitory activities of SEQ ID NOs: 87, 177, and 181 are as follows. Specifically, the inhibitory activity of BMP4 was evaluated in the same manner as in Example 11 that used A549 cells. Eight concentrations of the peptides were used at a common ratio of 1/3 starting from 2 nM. The inhibitory activity of BMP7 was evaluated in the same manner as in Example 12. Eight concentrations of the peptides were used at a common ratio of 1/3 starting from 100 nM. Note that recombinant Human Noggin Protein (R&D) as a positive control was used at the same concentration as that of the peptide. […] The inhibitory activity of BMP7 was evaluated using eight concentrations of the peptides at a common ratio of 1/3 starting from 1,000 nM in the same manner as in Example 12.

Row | Substance | aLISA BMP7 (BMP7) | aLISA BMP4 (BMP4)
1 | 41 ({CH2CO}-A[Tic]VYVDK[Bip]PYP[Bip]Y[Phe(4-COOH)][Phe(4-COOH)]SCG-NH2; thioether N-17) [compound 41] | ND (the inhibitory activity was less than 30% at the maximum concentration evaluated) | C (showed an inhibitory activity of less than 50% in 0.2 nM-addition zone and showed an inhibitory activity of 50% or more in 2 nM-addition zone were defined as B or C)
2 | 42 (Ac-AKVYVDK(Ac)[Bip]PYP[Bip]Y[Phe(4-COOH)][Phe(4-COOH)]SCG-NH2; thioether (positions not given here); not fully specified (bridges)) [compound 42] | ND (the inhibitory activity was less than 30% at the maximum concentration evaluated) | A (showed an inhibitory activity of 50% or more in a zone to which the peptide was added to in an amount of 0.2 nM)
3 | 43 (Ac-AKVYVD[4Pal][Bip]PYP[Bip]Y[Phe(4-COOH)][Phe(4-COOH)]SCG-NH2; thioether (positions not given here); not fully specified (bridges)) [compound 43] | ND (the inhibitory activity was less than 30% at the maximum concentration evaluated) | C (showed an inhibitory activity of less than 50% in 0.2 nM-addition zone and showed an inhibitory activity of 50% or more in 2 nM-addition zone were defined as B or C)
4 | 45 (Ac-AK(X8)VYVK(X8)K[Bip]PYP[Bip]Y[Phe(4-COOH)][Phe(4-COOH)]SCG-NH2; thioether (positions not given here); not fully specified (bridges)) [compound 45] | ND (the inhibitory activity was less than 30% at the maximum concentration evaluated) | A (showed an inhibitory activity of 50% or more in a zone to which the peptide was added to in an amount of 0.2 nM)
5 | 46 (ARVYVDR[Bip]PYP[Bip]Y[Phe(4-COOH)][Phe(4-COOH)]SC) [compound 46] | ND (the inhibitory activity was less than 30% at the maximum concentration evaluated) | A (showed an inhibitory activity of 50% or more in a zone to which the peptide was added to in an amount of 0.2 nM)
6 | 47 (Ac-ARVYVDR[Bip]PYP[Bip]Y[Phe(4-COOH)][Phe(4-COOH)]SC[βAla][dE]-OH; thioether (positions not given here); not fully specified (bridges)) [compound 47] | ND (the inhibitory activity was less than 30% at the maximum concentration evaluated) | A (showed an inhibitory activity of 50% or more in a zone to which the peptide was added to in an amount of 0.2 nM)
7 | 48 (Ac-ARVYVDR[Bip]PYP[Bip]Y[Phe(4-COOH)][Phe(4-COOH)]SC[βAla]K-NH2; thioether (positions not given here); not fully specified (bridges)) [compound 48] | ND (the inhibitory activity was less than 30% at the maximum concentration evaluated) | C (showed an inhibitory activity of less than 50% in 0.2 nM-addition zone and showed an inhibitory activity of 50% or more in 2 nM-addition zone were defined as B or C)
8 | 49 (Ac-ARVYVDR[Bip]PYP[Bip]Y[Phe(4-COOH)][Phe(4-COOH)]SC[βAla]-PEG12Me; thioether (positions not given here); not fully specified (bridges)) [compound 49] | ND (the inhibitory activity was less than 30% at the maximum concentration evaluated) | C (showed an inhibitory activity of less than 50% in 0.2 nM-addition zone and showed an inhibitory activity of 50% or more in 2 nM-addition zone were defined as B or C)
9 | 50 (Ac-ARVYVDR[Bip]PYP[Bip]Y[Phe(4-COOH)][Phe(4-COOH)]SC[βAla]K(OCOmPEG10000)-NH2; thioether (positions not given here); not fully specified (bridges)) [compound 50] | B (showed less than 50% of inhibitory activity in 1 nM-addition zone and showed 50% or more of inhibitory activity in 10 nM-addition zone) | D (showed inhibitory activity of less than 50% in 2 nM-addition zone)
10 | 53 (Ac-ERVYVDR[Bip]PYP[Bip]Y[Phe(4-COOH)][Phe(4-COOH)]SCG-NH2; thioether (positions not given here); not fully specified (bridges)) [compound 53] | ND (the inhibitory activity was less than 30% at the maximum concentration evaluated) | A (showed an inhibitory activity of 50% or more in a zone to which the peptide was added to in an amount of 0.2 nM)
11 | 57 (Ac-ARVYVDK(X8)[Bip]PYP[Bip]Y[Phe(4-COOH)][Phe(4-COOH)]SCG-NH2; thioether (positions not given here); not fully specified (bridges)) [compound 57] | C (showed less than 50% of inhibitory activity in 10 nM-addition zone and showed 50% or more of inhibitory activity in 100 nM-addition zone) | C (showed an inhibitory activity of less than 50% in 0.2 nM-addition zone and showed an inhibitory activity of 50% or more in 2 nM-addition zone were defined as B or C)
12 | 58 (Ac-ARVYVD[Cit][Bip]PYP[Bip]Y[Phe(4-COOH)][Phe(4-COOH)]SCG-NH2; thioether (positions not given here); not fully specified (bridges)) [compound 58] | C (showed less than 50% of inhibitory activity in 10 nM-addition zone and showed 50% or more of inhibitory activity in 100 nM-addition zone) | A (showed an inhibitory activity of 50% or more in a zone to which the peptide was added to in an amount of 0.2 nM)
13 | 59 (Ac-AK(X8)VYVDR[Bip]PYP[Bip][Phe(4-F)][Phe(4-COOH)][Phe(4-COOH)]SCG-NH2; thioether (positions not given here); not fully specified (bridges)) [compound 59] | C (showed less than 50% of inhibitory activity in 10 nM-addition zone and showed 50% or more of inhibitory activity in 100 nM-addition zone) | A (showed an inhibitory activity of 50% or more in a zone to which the peptide was added to in an amount of 0.2 nM)
